T1: CD19 (Biacore ligand coupled to the chip) (UniProt P15391 20-291, limits assumed)
T1 construct: also called 配体:CD19
T1 sequence (looked up): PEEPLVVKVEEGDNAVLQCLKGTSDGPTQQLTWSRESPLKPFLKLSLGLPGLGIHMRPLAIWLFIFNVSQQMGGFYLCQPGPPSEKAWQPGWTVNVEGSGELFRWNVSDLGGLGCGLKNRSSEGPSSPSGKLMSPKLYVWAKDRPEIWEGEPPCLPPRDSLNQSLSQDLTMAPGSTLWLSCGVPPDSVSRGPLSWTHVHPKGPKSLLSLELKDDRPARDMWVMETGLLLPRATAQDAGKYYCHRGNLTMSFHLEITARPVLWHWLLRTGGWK


Biological target: T1, CD19 (Biacore ligand coupled to the …)
Assay: Biacore SPR, CD19 coupled to chip, antibody as analyte 3.125-100 ug/ml

Kd [nM]	koff [s⁻¹]	kon [M⁻¹ s⁻¹]	Binder
15.9	0.00441	278000	HM1711091-T1L1H4 (antibody, V domains shown, Full antibody (全抗) used in the Biacore assay; also called 人源化单抗T1L1H4; 人源化T1L1H4抗体) VH: QVQLQESGPGLVAPSETLSLTCTVSGVSLPDYGVSWIRQPPRKGLEWIGVIWGSETTYYNSALKSRVTISVDTSKNQFSLKLSSVTAADTAVYYCAKHYYYGGSYAMDYWGQGTLVTVSS VL: DIQMTQSPSSLSASVGDRVTITCRASQDISKYLNWYQQKPGKAPKLLIYHTSRLHSGVPSRFSGSGSGTDFTFTISSLQPEDIATYYCQQGNTLPYTFGGGTKVEI
28.4	0.0028	98600	HM1711091-T4L2H2 (antibody, V domains shown, Full antibody (全抗) used in the Biacore assay; also called 人源化单抗T4L2H2; 人源化T4L2H2抗体) VH: QVTLRESGPALVKPTQTLTLTCTFSGVSLPDYGVSWIRQPPGKALEWLAVIWGSETTYYNSALKSRLTISKDTSKNQVVLTMTNMDPVDTATYYCAKHYYYGGSYAMDYWGQGTTVTVSS VL: EIVLTQSPATLSLSPGERATLSCRASQDISKYLNWYQQKPGQAPRLLIYHTSRLHSGIPDRFSGSGSGTDFTLTISRLEPEDIAVYYCQQGNTLPYTFGQGTKLEI

From patent publication CN109879966A (PERSONGEN BIOMEDICINE SUZHOU CO LTD, dated 2019)
